These results are taken from the DeepSol protein solubility set.

A short description of this data set: soluble on expression in E. coli; label from the status in PepcDB or PDB records.
Take “MKKIITLFGACALAFSMANADVNLYGPGGPHTALKDIANKYSEKTGVKVNVNFGPQATWFEKAKKDADILFGASDQSALAIASDFGKDFNVSKIKPLYFREAIILTQKGNPLKIKGLKDLANKKVRIVVPEGAGKSNTSGTGVWEDMIGRTQDIKTIQNFRNNIVAFVPNSGSARKLFAQDQADAWITWIDWSKSNPDIGTAVAIEKDLVVYRTFNVIAKEGASKETQDFIAYLSSKEAKEIFKKYGWREH”: the “soluble on expression in E. coli” value was “soluble”.
As for “MTSSDQSPSHDVFVYGSFQEPAVVNLILECAPVMVSAQLHGYHLYRLKGRLHPCISPSDNGLINGKILTGLTDSQLESLDMIEGTEYVRKTVEVVLTDTLEKKQVETIVWANKDDPNMYGEWDFEEWKRLHMEKFIEAATKFMEWKKNPNGRSREEFEKFVQDDSSPASA”, the “soluble on expression in E. coli” value is “soluble”.
Consider “MKKQKLSGAEGFESYYLSIFGERWQSLKAALLEERKPEAYSENLIQNYYLDYASIQAARAMPVLEEGSCLDMCAAPGGKTLVLLSRIKENAEIQANELSADRRNRLIRVLDEHLSEETRKRIRVSSYDASRMPRYGQELYDRILLDAPCSSERHVLQNEKYLKQWTEARIKNLSQRQWALLSAAFLLLKPKGFLVYSTCALADEENDFLIEKLIKKYKEKVRLEEKLDGLGPISPEKTRYGFRFLPDKAEGAGPIYFSLIQKN”, for which the “soluble on expression in E. coli” value is recorded as “not soluble”.
The same measure for “MSLGQVEVIDRRQSVFGDDIQLQKRSSSYEIISNGVFLMSTENGRSEREMVTLGAQHMKNAVHSVLIGGLGVGITADEAVHLNDHVQVHVVEIEPSVVEWQYRYLYPFSNQALEHERTAIIISDIQQWLRTNERTYDLICLDTDNGPDWMVHKQNASLYGKIGLELVRERVRVGGAVSFWSASASESFLHELETLFDRVYEHAVSISHTLPPDYVYVACREGHHHHHH”: “not soluble”; for “MSLTIMPDIARMKRELAEIIAIRSENPPGGEADVAVYVERLLKDEGFSVSLTEYKPGRFNVEARIENGPGPVFAFNTHMDTVPAGDGWTTDAFILREDDGKLFGRGACDCKGPLIAMIEAMRMLAADRTAWSGTLLGVFVGDEEIASEGAKYYAAARPKIDFAVVGEPTSNTTYSAHKGSLRPVVRVHGVTAHSGTPHLGDNAIYRAGQLLTLVEAFHNNVVRKRTHPLVGEASLTVTRISGGHADNVLPGSCDLLLDRRMVPGESEDAVKQEFATLLKDAYDRFGVKAEIVDYKATTGSATETAADQSIVAASLEACRASGTSDPGPFGFQGGCDLVHFRSLGAQGTVIGPGSLSVAHKADEFVPLDEFVTCSVIYRDVARKMLRPNEGHHHHHH”: “soluble”; for “MSLRKFMVLGYGEIGKLAIKHLLSHKVECIYLIVRDKSKASDLEGEIVEVLDFNEKNQVINEIDCIVSCTAAPHTVVRNEDIKTEGETIHIYDLAVPRDVDKELSEKERVILKDIDEISKIDDKNKKIRKERMEEYKHIVEESIDEFLNWLKIREVSSKIRNIKIRENEICSERIKTFSNKGNGENAKLAERMIKSTADAYVNRAIELLKSEALKGSDSYCAEIIEKIFLTEGHHHHHH”: “not soluble”.
Regarding “MEMGMKRIANECFFAWVESEIKSGRSVKFRVKGNSMMPLLRNGKDEVVVGPYDKEELKLFDVILFRQTDRYVLHRIIQKRDSRYLMQGDGVCRFYEECEDTDIIGVVRKVCRPSGKKIETDSMCWRLESRLWLGLGGCRGMVLRVLNRLGCCLLF”, the “soluble on expression in E. coli” value was “not soluble”.
The entry for “MSLQPSKRYEIGISQTIGKNDRMQDTANVLGELFPNIDIIGIFDGHNGEEAARYCLISMKNEFNCLNPKDCEHQLPQIFESIHNNISSQTISGTTASICIIRSDDVVLAHVGDSPIYFYENGGKVINIKGVDRVNGQINLSRSLGDKLLQPPLTYKPDISIHSLSMKYIVIVTDGVTDSLSDSEMEIILSQPLSPDQIAATIRNNAFINGSVDNISVIVIQIIEGHHHHHH” is “soluble”; for “MTPPADETRLFECVTCGGVGIGDNRPTCCGEPMAATETGDTAVSEPSLETLLKTVFDMSGTELDICLCVMEGGELTVAALAEQIGYDRSVVARHLNHLAAFGVVEKRRRIRPEGGHVYVYTPQPPEVVRERLREEFLSWVRLATAQLDDLQREKVEAIADAKTDERQWTVFQEQ” it is “not soluble”.
